Numbering of substitutions follows the chain as printed.
T1: Human Fas (CD95) on the cell surface (human, UniProt P25445 26-335)
T1 sequence: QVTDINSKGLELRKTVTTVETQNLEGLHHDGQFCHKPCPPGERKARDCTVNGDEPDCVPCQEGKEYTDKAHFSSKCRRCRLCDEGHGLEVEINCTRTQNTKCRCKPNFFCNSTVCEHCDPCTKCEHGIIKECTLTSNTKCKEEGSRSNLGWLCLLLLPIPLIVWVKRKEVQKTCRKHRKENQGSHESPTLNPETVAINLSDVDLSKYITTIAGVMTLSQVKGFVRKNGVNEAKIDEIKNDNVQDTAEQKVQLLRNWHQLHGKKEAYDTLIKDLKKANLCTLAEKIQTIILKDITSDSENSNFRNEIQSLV

T2: Chimpanzee Fas on the cell surface (chimpanzee, UniProt K6ZIR5 26-335)
T2 construct: also called Fas on chimpanzee B cell line
T2 sequence: T1 sequence with G26D, T135A, G150W, E264D, D272G

T3: Recombinant human soluble Fas receptor (PeproTech, Cat. 310-20) (human, UniProt P25445 17-173)
T3 construct: Bought soluble form; also called sFas; rFas
T3 sequence (looked up): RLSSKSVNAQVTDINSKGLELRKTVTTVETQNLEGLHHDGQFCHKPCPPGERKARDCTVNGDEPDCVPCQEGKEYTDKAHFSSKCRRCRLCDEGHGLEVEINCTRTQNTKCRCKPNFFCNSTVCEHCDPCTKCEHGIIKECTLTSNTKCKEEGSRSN

T4: Rhesus macaque Fas on the cell surface (rhesus macaque, UniProt Q9BDP2 26-333)
T4 construct: whole, on cells
T4 sequence (looked up): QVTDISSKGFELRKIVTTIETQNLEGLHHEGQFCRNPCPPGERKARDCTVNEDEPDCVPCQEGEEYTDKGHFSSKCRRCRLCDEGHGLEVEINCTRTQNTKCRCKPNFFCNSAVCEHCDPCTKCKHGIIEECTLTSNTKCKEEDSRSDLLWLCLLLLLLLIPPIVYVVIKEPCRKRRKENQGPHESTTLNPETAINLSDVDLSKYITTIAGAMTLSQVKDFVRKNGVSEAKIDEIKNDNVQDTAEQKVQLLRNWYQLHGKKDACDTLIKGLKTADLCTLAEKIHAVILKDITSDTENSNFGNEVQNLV

T5: Rat Fas on the cell surface (rat, UniProt Q63199 22-324)
T5 construct: whole, on cells; also called Fas on rat peripheral blood lymphocytes
T5 sequence (looked up): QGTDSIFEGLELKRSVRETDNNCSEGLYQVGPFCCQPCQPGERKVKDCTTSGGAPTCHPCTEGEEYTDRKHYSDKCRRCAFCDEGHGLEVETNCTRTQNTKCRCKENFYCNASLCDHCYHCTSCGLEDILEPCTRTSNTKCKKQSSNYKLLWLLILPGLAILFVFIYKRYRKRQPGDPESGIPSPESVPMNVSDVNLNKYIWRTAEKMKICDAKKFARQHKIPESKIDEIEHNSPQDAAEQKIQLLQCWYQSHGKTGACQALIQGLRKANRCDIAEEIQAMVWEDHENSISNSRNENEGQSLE

T6: Cynomolgus macaque Fas on the cell surface (cynomolgus macaque, UniProt Q9TSN4 26-331)
T6 construct: whole, on cells; also called Fas on cynomolgus macaque B cell line and PBL
T6 sequence (looked up): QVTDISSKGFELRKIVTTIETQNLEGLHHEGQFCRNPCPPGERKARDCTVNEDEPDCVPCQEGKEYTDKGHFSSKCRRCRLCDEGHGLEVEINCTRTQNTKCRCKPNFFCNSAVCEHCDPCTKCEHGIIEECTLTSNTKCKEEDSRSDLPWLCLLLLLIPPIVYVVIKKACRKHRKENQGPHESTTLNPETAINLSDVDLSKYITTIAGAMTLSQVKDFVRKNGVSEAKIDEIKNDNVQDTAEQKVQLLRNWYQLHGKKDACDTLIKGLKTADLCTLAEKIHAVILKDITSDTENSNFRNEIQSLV

T7: Pig Fas on the cell surface (pig, UniProt O77736 17-332)
T7 construct: whole, on cells; also called Fas on pig peripheral blood lymphocytes
T7 sequence (looked up): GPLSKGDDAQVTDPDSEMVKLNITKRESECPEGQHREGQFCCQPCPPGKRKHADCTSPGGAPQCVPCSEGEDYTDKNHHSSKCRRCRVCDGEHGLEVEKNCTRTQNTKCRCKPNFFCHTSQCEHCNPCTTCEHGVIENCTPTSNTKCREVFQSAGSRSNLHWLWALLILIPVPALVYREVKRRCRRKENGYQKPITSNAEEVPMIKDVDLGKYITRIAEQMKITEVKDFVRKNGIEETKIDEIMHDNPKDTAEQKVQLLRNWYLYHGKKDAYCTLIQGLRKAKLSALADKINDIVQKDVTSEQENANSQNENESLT

T8: Mouse Fas on the cell surface (mouse, UniProt P25446 22-327)
T8 construct: whole, on cells; also called Fas on peripheral blood lymphocytes of BALB/c mice
T8 sequence (looked up): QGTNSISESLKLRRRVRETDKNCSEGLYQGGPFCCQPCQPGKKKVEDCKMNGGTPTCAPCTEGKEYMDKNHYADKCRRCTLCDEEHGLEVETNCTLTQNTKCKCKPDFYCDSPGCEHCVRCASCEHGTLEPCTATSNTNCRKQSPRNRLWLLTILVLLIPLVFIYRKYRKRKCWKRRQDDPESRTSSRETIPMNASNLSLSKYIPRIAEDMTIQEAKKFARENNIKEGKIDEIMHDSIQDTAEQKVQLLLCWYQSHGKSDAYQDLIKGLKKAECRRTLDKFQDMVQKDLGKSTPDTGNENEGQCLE

B1: F45D9-γ1 F(ab′)2 fragment (other)
VH: QVQLQQWGAGLLKPSETLSLICAVYGGSFSTYYWTWIRQPPGKGLEWIGEINHRGTTNYSPSLKSRVTISVDTSKNHISLNLTSVTAADTALYYCARGLLWIGEGDYGLDVWGQGTTVTVSS
VL: DIQMTQSPSSLSASVGDRVTITCRASQGIRRWLAWYQQKPEKAPKSLIYAASSLQSGVPSRFSGSGSGTDFTLTISSLQPEDFATYYCQQYNSYPYTFGQGTKLEIKR
B2: F45D9-γ4 mAb (recombinant human mAb T19/B5-1F9, gamma-4 isotype) (antibody, V domains shown)
VH: B1 VH
VL: B1 VL
notes: Whole human IgG4 (γ4P allotype vector pIESRαγ4P) with human kappa light chain, made in CHO DG44 cells; also called IgG4; T19/L22/B5-1F9
B3: F45D9 mAb (isotype not specified at the place) (antibody, V domains shown)
VH: B1 VH
VL: B1 VL
notes: also called F45D9 mAb's

How the values were obtained:
[1] = molecular target: T1, Human Fas (CD95) on the cell surface; assay: cell-based or functional assay
[2] = molecular target: T1, Human Fas (CD95) on the cell surface; assay: flow cytometry on Jurkat cells, FITC anti-human IgG secondary, geometric MFI after background subtraction
Protocol: (§1) Binding of F45D9-γ1 and F45D9-γ4 to the surface of Fas expressing Jurkat and SKW6.4 cells (from ATCC, Jurkat, clone E6-1, ATCC-TIB-152, Human T Leukemia cell line); SKW6.4 cells, ATCC-TIB-215, Human B lymphoblastoid cell line) was explored by immunofluorescence staining and flow cytometry analysis. Cells were cultured in RPMI 1640 medium (GIBCO, Cat. 3105205) supplemented with 2 mM glutamax (GIBCO), 100 UI/mL penicillin, 100 μg/mL streptomycin (Sigma) and 5-10% fetal bovine serum (GIBCO), at 37° C. and 5% CO₂. After washing in PBS Jurkat or SKW6.4 cells (0.2×10⁶ cells/well) were incubated in staining buffer (PBS/1% FBS) containing F45D9-γ1, F45D9-γ4 or human IgG control antibodies (Human IgG1, kappa, Sigma, Cat. I5154 or Human IgG4, kappa, Sigma, Cat. I4639) in a 96-well U-bottom plate for 30 min on ice, in a 100 ul/well volume. Cells were then washed once with staining buffer, and further incubated for 30 min on ice with 1:30 dilution of FITC-conjugated rabbit F(ab′)₂ anti-human IgG (DakoCytomation Cat. F0056). After washing and fixing with 1% formaldehyde in PBS cells were analyzed in a FACScan (Becton Dickinson, Mountain View, Calif.). The reactivity of F45D9-γ1 and F45D9-γ4 to the surface of Jurkat cells was quantified and Geometric Mean Fluorescence Intensity (MFI) after background subtraction (FIG. 1A) and histograms (FIG. 1B) are shown. […]

[3] = molecular target: T2, Chimpanzee Fas on the cell surface; assay: flow cytometry on chimpanzee cells
[4] = molecular target: T1, Human Fas (CD95) on the cell surface; assay: flow cytometry on SKW6.4 cells, FITC anti-human IgG secondary, geometric MFI after background subtraction
Protocol: as §1

[5] = molecular target: T3, Recombinant human soluble Fas receptor …; assay: SPR (BIAcore 3000), soluble Fas immobilized on CM5 chip, antibody as analyte, bivalent analyte fit
Protocol: The interaction of F45D9 mAb's (γ-γ1 and γ4-isotypes) with immobilized soluble human Fas receptor was monitored by surface plasmon resonance detection using a BIAcore 3000 instrument. Recombinant human soluble Fas receptor (srFas) (PeproTech, cat. 310-20) was immobilized (concentration of 5 ug/ml in immobilization buffer: 10 mM sodium acetate pH 5.0) onto a CM5 sensor chip (BIAcore BR-1001-14) using an Amine Coupling kit (BIAcore, Cat. BR-1000-50), at a surface density of […] resonance units (RU). Deactivation of excess reactive groups on the chip surface was done by adding 1.0 M ethalonamine hydrochloride (pH 8.5). F45D9 mAb's-γ1 mAb were passed over the surface in equilibrium binding experiments at concentrations ranging from […] at a flow rate of 30 ul/min. Dilutions and binding experiments were conducted in 0.01 M HEPES (pH 7.4), 0.15 M NaCl, 3 mM EDTA, and 0.005% P-20 (BIAcore surfactant, BR-1001-88). Between each cycle 100 mM HCl was used to regenerate the surfaces at a flow rate 30 ul/min. KA and KD of F45D9 mAb's were-γ1 mAb was determined by fitting bivalentusing BIAcore models (BIAevaluation).

[6] = molecular target: T4, Rhesus macaque Fas on the cell surface; assay: flow cytometry, rhesus macaque B cell line
From the text: (§2) Reactivity of F45D9-γ1 or F45D9-γ4 mAb with Fas molecules of various species was initially screened using primary blood cells or lymphocytes cell lines. The binding of F45D9-γ1 or F45D9-γ4 mAb was explored by immunofluoresce staining and flow cytometry analysis, in human PBMC, purified human resting T cells, activated human T cells, peripheral blood lymphocytes (PBL) derived from BALE/c mice, rat, dog and pig, and in B cell lines or PBL derived from common marmoset, cynomolgus macaque, olive baboon, rhesus macaque and chimpanzee. Resting and activated human T cells were prepared as described in Example 7. B cells lines from monkeys were obtained from Biomedical Primate Research Center (Rijswijk, The Netherlands), and were cultured in RPMI 1640 medium supplemented with 2 mM glutamax, 100 UI/mL penicillin, 100 μg/mL streptomycin and 10% fetal bovine serum, at 37° C. and 5% CO₂. After washing in PBS cells (0.2−0.4×10⁶ cells/well) were incubated in staining buffer (PBS/1% FBS) containing F45D9-γ1 or human IgG control antibodies (10-20 ug/ml) in a 96-well U-bottom plate for 30 min on ice, in a 100 ul/well volume. Cells were then washed once with staining buffer, and further incubated for 30 min on ice with 1:30 dilution of FITC-conjugated rabbit F(ab′)₂ anti-human kappa (DakoCytomation Cat. F0434) or FITC-conjugated rabbit F(ab′)₂ anti-human IgG (DakoCytomation Cat. F0056). […]

[7] = molecular target: T5, Rat Fas on the cell surface; assay: flow cytometry, rat peripheral blood lymphocytes
From the text: as §2

[8] = molecular target: T6, Cynomolgus macaque Fas on the cell …; assay: flow cytometry, cynomolgus macaque B cell line
From the text: as §2

[9] = molecular target: T7, Pig Fas on the cell surface; assay: flow cytometry, pig peripheral blood lymphocytes
From the text: as §2

[10] = molecular target: T8, Mouse Fas on the cell surface; assay: flow cytometry, peripheral blood lymphocytes of mice
From the text: as §2

[11] = molecular target: T2, Chimpanzee Fas on the cell surface; assay: flow cytometry, chimpanzee B cell line
From the text: as §2

[12] = molecular target: T3, Recombinant human soluble Fas receptor …; assay: SPR (BIAcore 3000), soluble Fas immobilized on CM5 chip; antibody form and model not given

| share of binding capacity on Jurkat cells at which complete blocking of FasL-induced apoptosis is achieved [1] | EC50 (read off the curve) [2] | IC50 of inhibition of rhFasL-induced apoptosis in SKW6.4 cells (Annexin-V/PI, flow cytometry) [1] | IC50 of inhibition of rhFasL-induced apoptosis in activated human T cells (Annexin-V/PI, flow cytometry) [1] | binding result [3] | EC50 (read off the curve) [4] | Kd [5] | binding result [6] | binding result [7] | binding result [8] | binding result [9] | binding result [10] | binding result [11] | Ka [12] | Kd [12] | Binder |
| --- | --- | --- | --- | --- | --- | --- | --- | --- | --- | --- | --- | --- | --- | --- | --- |
| ≥ 12.5% | – | – | – | – | – | – | – | – | – | – | – | – | – | – | B1 |
| ≥ 12.5% | ~0.6 µg/mL | 0.2 nM | 0.02 nM | binds | ~0.7 µg/mL | 0.0587 nM | – | – | – | – | – | – | – | – | B2 |
| – | – | – | – | – | – | – | no binding | no binding (tested: 10-20 ug/ml) | no binding | no binding (tested: 10-20 ug/ml) | no binding (tested: 10-20 ug/ml) | binds | 6.5e+09 M⁻¹ | 0.153 nM | B3 |

Reference: US20100233157A1 (published 2010)
